Substitutions are numbered along the chain they refer to. Blank lines part the entries; values can stand above or below the binder they belong to.
Columns and labels:
[1] = biological target: T1, QP094 (human SIRPα V1 ECD(E31-R370)-flag-his) (human, UniProt P78324 31-370); experiment: SPR, Biacore 8K
T1 construct: the construct carries flag and his tags; also called SIRPαV1-flag-his; SIRPαV1-his (QP094)

[2] = biological target: QP003 (PDL1-his); experiment: ELISA, QP003 (PDL1-his) captured on coated anti-his, anti-hFc detection; unit from the x axis; no rising curve is seen for it, the fit is marked ambiguous (~)
[3] = biological target: SIRPα V7 fusion Fc (mouse IgG2a) (human); experiment: ELISA, SIRPα V7-mouse IgG2a Fc coated, anti-hFab detection
[4] = biological target: SIRPα V2 fusion Fc (mouse IgG2a) (human); experiment: ELISA, SIRPα V2-mouse IgG2a Fc coated, anti-hFab detection; unit from the x axis; the curve is flat at the baseline, the fit is marked ambiguous (~)
[5] = biological target: SIRPα V3 fusion Fc (mouse IgG2a) (human); experiment: ELISA, SIRPα V3-mouse IgG2a Fc coated, anti-hFab detection; unit from the x axis; the curve is flat at the baseline, the fit is marked ambiguous (~)
[6] = biological target: SIRPα V8 fusion Fc (mouse IgG2a) (human); experiment: ELISA, SIRPα V8-mouse IgG2a Fc coated, anti-hFab detection
[7] = biological target: T2, QP273 (cynoSIRPα2-flag-his T-557-14) (cynomolgus); experiment: SPR, Biacore
T2 construct: also called cynomolgus SIRPα (QP273)
T2 chain: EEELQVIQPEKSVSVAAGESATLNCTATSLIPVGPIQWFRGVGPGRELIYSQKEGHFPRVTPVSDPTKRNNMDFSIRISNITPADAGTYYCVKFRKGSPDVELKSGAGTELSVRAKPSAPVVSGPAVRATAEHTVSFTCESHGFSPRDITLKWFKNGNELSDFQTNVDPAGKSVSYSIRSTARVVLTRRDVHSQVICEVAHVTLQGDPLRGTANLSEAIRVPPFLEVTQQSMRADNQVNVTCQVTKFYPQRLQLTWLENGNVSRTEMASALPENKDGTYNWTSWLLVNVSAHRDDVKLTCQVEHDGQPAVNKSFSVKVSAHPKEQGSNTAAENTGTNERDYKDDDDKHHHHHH

[8] = biological target: T3, QP271 (rhesus SIRPα1-flag-his T-557-28) (rhesus monkey); experiment: SPR, Biacore
T3 construct: also called rhesus monkey SIRPα (QP271); monkeySIRPα1-flag-his
T3 chain: T2 chain with E19D, A27V, V42A, S51H, P62S, D65E, P66S, R77H, L103V

[9] = biological target: T4, QP098 (cyno SIRPα (I7G9Z7) ECD(E31-R369)-flag-his) (cynomolgus); experiment: SPR, Biacore
T4 construct: the construct carries flag and his tags; also called cynoSIRPα (ECD); cynomolgus SIRPα
T4 chain: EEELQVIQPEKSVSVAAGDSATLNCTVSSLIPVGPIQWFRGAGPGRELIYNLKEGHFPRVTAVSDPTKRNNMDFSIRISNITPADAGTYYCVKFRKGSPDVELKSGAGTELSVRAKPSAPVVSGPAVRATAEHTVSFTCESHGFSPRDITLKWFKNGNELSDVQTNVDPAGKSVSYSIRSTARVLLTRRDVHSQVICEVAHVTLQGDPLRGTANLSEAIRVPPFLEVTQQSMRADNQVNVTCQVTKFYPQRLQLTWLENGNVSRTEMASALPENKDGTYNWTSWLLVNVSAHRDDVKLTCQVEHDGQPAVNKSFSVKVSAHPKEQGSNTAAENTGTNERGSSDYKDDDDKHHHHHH

[10] = biological target: T2, QP273 (cynoSIRPα2-flag-his T-557-14); experiment: binding ELISA, antigen coated
[11] = biological target: T5, QP100 (cyno SIRPα (G7PGS8) ECD(E29-R368)-flag-his) (cynomolgus); experiment: binding ELISA, antigen coated
T5 construct: the construct carries flag and his tags; also called cynoSIRPα-flag-his; Cynomolgus SIRPα (QP100)
T5 chain: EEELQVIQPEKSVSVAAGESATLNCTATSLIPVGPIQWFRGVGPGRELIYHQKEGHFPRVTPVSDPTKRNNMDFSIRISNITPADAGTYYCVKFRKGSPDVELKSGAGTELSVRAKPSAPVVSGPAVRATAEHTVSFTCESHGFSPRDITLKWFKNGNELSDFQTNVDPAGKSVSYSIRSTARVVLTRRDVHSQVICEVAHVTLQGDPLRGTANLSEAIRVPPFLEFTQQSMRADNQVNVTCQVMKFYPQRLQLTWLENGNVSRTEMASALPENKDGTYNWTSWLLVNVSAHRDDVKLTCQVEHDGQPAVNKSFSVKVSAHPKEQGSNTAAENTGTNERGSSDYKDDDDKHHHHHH

[12] = biological target: T3, QP271 (rhesus SIRPα1-flag-his T-557-28); experiment: binding ELISA, antigen coated
[13] = biological target: T4, QP098 (cyno SIRPα (I7G9Z7) …); experiment: binding ELISA, antigen coated
[14] = biological target: QP003 (PDL1-his); experiment: ELISA, QP003 (PDL1-his) captured on coated anti-his, anti-hFc detection; unit from the x axis; the curve is flat at the baseline, the fit is marked ambiguous (~)
[15] = biological target: T6, QP002 (biotinylated in the blocking assays, sites not given); experiment: blocking ELISA: CD47 FC (QP001) coated, biotin SIRPα-FC (QP002) mixed with the antibody, HRP-streptavidin; blocked ligand: CD47; unit from the x axis Log(Conc.(nM))
T6 construct: also called SIRPα-FC; Biotin-QP002
T6 sequence (SIRPα-Fc fusion chain, as listed by the source): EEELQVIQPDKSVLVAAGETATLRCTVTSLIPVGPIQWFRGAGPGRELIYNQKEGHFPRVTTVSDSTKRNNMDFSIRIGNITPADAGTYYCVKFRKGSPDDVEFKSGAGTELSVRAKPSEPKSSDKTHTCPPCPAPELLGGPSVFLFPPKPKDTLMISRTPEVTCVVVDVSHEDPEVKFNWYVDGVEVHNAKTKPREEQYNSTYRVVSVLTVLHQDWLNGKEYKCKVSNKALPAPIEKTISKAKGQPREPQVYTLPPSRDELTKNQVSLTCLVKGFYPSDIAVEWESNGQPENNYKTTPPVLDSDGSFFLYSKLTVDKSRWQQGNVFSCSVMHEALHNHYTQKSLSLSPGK

Chain of QP003 (PDL1-his) (chain, as listed by the source limits assumed): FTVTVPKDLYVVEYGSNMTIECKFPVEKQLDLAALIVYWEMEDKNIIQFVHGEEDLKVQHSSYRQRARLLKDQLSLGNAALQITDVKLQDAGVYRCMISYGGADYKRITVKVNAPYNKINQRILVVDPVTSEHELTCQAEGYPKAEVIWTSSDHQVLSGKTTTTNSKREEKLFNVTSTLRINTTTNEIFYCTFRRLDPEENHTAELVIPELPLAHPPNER
Chain of SIRPα V7 fusion Fc (mouse IgG2a) (human) (chain, as listed by the source limits assumed): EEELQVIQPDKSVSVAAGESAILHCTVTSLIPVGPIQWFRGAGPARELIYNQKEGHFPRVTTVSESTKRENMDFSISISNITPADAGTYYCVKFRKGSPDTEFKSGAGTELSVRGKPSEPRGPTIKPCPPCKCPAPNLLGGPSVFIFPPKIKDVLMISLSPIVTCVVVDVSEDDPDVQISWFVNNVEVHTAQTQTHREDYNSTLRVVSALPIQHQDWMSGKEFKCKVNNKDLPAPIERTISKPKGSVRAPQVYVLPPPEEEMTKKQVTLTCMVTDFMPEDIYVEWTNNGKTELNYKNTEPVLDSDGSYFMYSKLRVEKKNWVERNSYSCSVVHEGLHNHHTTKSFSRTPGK
Chain of SIRPα V2 fusion Fc (mouse IgG2a) (human) (chain, as listed by the source limits assumed): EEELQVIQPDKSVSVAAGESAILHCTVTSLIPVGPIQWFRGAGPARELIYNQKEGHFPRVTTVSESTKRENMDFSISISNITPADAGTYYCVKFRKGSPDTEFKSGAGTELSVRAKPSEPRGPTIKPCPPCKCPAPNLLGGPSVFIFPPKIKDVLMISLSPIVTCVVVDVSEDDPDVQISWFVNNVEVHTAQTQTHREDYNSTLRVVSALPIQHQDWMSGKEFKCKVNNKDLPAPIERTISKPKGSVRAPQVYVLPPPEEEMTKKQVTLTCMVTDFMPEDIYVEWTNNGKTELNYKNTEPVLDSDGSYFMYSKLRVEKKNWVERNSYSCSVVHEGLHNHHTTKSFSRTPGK
Chain of SIRPα V8 fusion Fc (mouse IgG2a) (human) (chain, as listed by the source limits assumed): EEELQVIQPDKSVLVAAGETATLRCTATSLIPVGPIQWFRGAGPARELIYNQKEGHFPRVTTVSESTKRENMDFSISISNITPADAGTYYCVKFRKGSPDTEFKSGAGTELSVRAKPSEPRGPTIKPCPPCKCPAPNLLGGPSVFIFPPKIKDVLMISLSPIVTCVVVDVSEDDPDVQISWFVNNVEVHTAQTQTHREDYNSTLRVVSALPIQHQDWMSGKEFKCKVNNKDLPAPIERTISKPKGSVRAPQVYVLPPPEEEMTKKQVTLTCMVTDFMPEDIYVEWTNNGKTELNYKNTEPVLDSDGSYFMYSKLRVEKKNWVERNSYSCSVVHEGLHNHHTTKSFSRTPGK

Kd [1]: 4700 pM
koff [1]: 0.00386 s⁻¹
kon [1]: 822000 M⁻¹ s⁻¹
EC50 [2]: ~0.685 pM
B1: QP026249 (KWAR23 analog) (antibody, human IgG4 S228P, kappa)
heavy: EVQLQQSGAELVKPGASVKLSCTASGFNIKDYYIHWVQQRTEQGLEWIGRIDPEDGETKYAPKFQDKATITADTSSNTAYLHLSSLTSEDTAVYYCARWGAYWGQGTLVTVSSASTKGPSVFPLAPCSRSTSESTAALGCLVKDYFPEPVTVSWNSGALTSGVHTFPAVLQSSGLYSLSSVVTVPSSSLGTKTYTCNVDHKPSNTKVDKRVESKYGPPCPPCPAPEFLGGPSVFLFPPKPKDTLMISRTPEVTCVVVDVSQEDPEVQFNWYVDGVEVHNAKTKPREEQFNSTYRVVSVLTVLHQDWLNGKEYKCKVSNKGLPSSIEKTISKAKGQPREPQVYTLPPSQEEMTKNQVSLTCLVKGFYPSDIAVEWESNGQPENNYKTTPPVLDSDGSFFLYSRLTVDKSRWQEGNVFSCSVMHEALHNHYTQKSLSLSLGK
light: QIVLTQSPAIMSASPGEKVTLTCSASSSVSSSYLYWYQQKPGSSPKLWIYSTSNLASGVPARFSGSGSGTSYSLTISSMEAEDAASYFCHQWSSYPRTFGAGTKLELKRTVAAPSVFIFPPSDEQLKSGTASVVCLLNNFYPREAKVQWKVDNALQSGNSQESVTEQDSKDSTYSLSSTLTLSKADYEKHKVYACEVTHQGLSSPVTKSFNRGEC
notes: also called KAWA23 analog; control antibody KWAR23 (QP026249), human IgG4

EC50 [4]: ~55.4 pM
EC50 [5]: ~58700 pM
B2: QP250251 (18D5 analog) (antibody, human IgG4 S228P, kappa, V domains shown)
VH: QVQLQQPGAELVRPGSSVKLSCKASGYTFTSYWVHWVKQRPIQGLEWIGNIDPSDSDTHYNQKFKDKASLTVDKSSSTAYMQLSSLTFEDSAVYYCVRGGTGTMAWFAYWGQGTLVTVSA
VL: DVVMTQTPLSLPVSLGDQASISCRSSQSLVHSYGNTYLYWYLQKPGQSPKLLIYRVSNRFSGVPDRFSGSGSGTDFTLKISRVEAEDLGVYFCFQGTHVPYTFGSGTKLEIKR
notes: also called SIRPα antibody 18D5 from OSE
binding result [3]: no binding (tested: about 67 nM (last point at log 1.8))
binding result [6]: no binding (tested: about 67 nM (last point at log 1.8))

Kd [7]: 918 pM
Kd [8]: 441 pM
Kd [9]: 1560 pM
EC50 [10]: 0.721 ng/mL
EC50 [11]: 0.558 ng/mL
EC50 [12]: 0.601 ng/mL
EC50 [13]: 0.619 ng/mL
B3: QP256279 (antibody, human IgG4, V domains shown)
VH: QVQLVQSGAEVKKPGASVKVSCKASGYTFTNYWINWVRQAPGQGLEWIAMIDPSDSETHYNQIFKDRATLTTDTSTSTAYMELRSLRSDDTAVYYCAMDYGSLYAMDYWGRGTLVTVSS
VL: DIVLTQSPDSLAVSLGERATINCRASQSVRSSGYNWIFWYQQKPGQPPKLLIYLASNRDSGVPDRFSGSGSGTDFTLTISSLQAEDVAVYYCQHSRELPTFGQGTKLEIK
notes: Human IgG4 heavy constant region and kappa CL

EC50 [14]: ~0.628 pM
IC50 [15]: 208 pM
B4: QP32700279 (antibody, human IgG1, kappa, L234A L235A, V domains shown)
VH: B3 VH
VL: DIVLTQSPDSLAVSLGERATINCRASQSVRSSGYNWIFWYQQKPGQPPKLLIYLASNRDSGVPDRFSGSGSGTDFTLTISSLQAEDVAVYYCQHSRELPTFGQGTKLEIKR
notes: also called SIRPα monoclonal antibody CHO71

Source: US20250326840A1 (QURE BIOTECHNOLOGY SHANGHAI, published 2025)
